In US20070298499, “Methods and compositions for regulating gene expression in plant cells” (published 2007):

Key:
[1] = molecular target: T1, RF2b (expressed in BY-2 protoplasts) (UniProt Q6S4P4); test: cell_activity; conditions: GUS reporter in BY-2 protoplasts
T1 sequence: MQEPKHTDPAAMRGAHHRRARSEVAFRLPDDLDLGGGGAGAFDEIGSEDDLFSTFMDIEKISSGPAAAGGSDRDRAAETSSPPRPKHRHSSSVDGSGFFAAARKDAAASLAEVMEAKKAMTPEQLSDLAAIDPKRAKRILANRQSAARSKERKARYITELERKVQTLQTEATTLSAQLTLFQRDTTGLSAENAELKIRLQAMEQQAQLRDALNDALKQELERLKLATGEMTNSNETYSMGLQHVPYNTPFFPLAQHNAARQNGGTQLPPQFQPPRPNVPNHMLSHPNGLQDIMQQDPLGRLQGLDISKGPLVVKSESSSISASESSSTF

RF2b [2] = molecular target: T2, RF2b (UniProt Q6S4P4 SEQ:1-329); test: SPR; value only in figure; lower affinity than RF2a; conditions: chain copies: 2 (inferred, bZIP dimer), label: biotin (SPR)
T2 chain: T1 sequence
Procedure: (§1) To compare the binding affinities of RF2a and RF2b with the Box II element and its mutants, real time Surface Plasmon Resonance (“SPR”) measurements were conducted using a BIAcore 2000 instrument. The binding affinities of RF2a and RF2b to these DNA targets were measured on chips on which biotin labeled-Box II, -Box IIm1 and -Box IIm2 elements were immobilized.
(§2) The association and de-association constants were determined using BIAevaluation 3.1 software—using 1:1 binding with a mass transfer model. In general, RF2a has relatively higher binding affinities to the Box II, Box IIm1 and Box IIm2 elements when compared to RF2b. Furthermore, the DNA binding behavior of RF2a and RF2b are quite different from each other. RF2a appears to bind rapidly to the DNA target and slowly dissociates from the target, while RF2b binds slowly to the DNA target and releases from the target relatively quickly. The differences in the affinity of RF2a to the Box II element and its mutants, however, are not as dramatic as the differences of RF2b, while the relative order of affinities to the different target elements is the same for both proteins (FIG. 8).

RF2b [3] = molecular target: T2, RF2b; test: SPR; value only in figure; lower affinity than RF2a; slow on, relatively fast off; conditions: chain copies: 2 (inferred, bZIP dimer); label: biotin (SPR)
Procedure: as §1, §2

[4] = molecular target: T3, RF2a-ΔQ (glutamine-rich domain deleted) (UniProt Q69IL4 SEQ:1-283); test: EMSA; 100 ng protein, 5% acrylamide gel; conditions: tags: N-terminal His6 (pET28a); chain copies: 2 (inferred, bZIP dimer); label: biotin (SPR); 32P (EMSA)
T3 chain: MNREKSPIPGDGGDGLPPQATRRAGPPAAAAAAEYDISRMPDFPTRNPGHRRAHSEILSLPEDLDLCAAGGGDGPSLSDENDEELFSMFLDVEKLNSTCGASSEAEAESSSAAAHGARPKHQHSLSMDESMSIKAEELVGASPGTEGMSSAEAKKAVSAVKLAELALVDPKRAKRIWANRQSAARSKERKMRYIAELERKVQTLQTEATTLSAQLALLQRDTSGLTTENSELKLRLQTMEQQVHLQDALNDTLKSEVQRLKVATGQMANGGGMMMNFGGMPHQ
Procedure: (§3) The purified mutant proteins were then analyzed by SDS-PAGE to confirm that each protein was its expected size (FIG. 16(B)). To confirm that each of the mutant proteins bind to the DNA target, i.e., the Box II element and/or its operational derivatives, gel mobility shift assays were carried out with the purified recombinant proteins (FIG. 16(C)). The electrophoretic mobility shift assays were carried out essentially as described in Yin and Beachy (1995). 100 ng of proteins purified from the transformed E. coli were incubated with ³²P-labeled Box IIm1 DNA probe followed by electrophoresis in a 5% acrylamide gel (Yin et al., 1997) (FIG. 16(C)).

[5] = molecular target: T4, RF2a-ΔP (proline-rich domain deleted) (UniProt Q69IL4 SEQ:1-320); test: EMSA; 100 ng protein, 5% acrylamide gel; conditions: tags: N-terminal His6 (pET28a); chain copies: 2 (inferred, bZIP dimer); label: biotin (SPR); 32P (EMSA)
T4 chain: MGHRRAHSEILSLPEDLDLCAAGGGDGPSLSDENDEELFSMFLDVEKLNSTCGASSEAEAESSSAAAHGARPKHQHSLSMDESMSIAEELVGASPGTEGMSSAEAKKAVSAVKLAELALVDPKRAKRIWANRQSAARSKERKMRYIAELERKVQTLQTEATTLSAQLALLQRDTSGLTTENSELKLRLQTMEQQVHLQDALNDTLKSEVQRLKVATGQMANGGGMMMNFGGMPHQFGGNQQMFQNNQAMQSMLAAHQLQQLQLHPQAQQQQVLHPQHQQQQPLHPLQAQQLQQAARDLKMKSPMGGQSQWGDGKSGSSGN
Procedure: as §3

[6] = molecular target: T5, RF2a-ΔPΔA (proline-rich and acidic domains deleted) (UniProt Q69IL4 SEQ:1-261); test: EMSA; 100 ng protein, 5% acrylamide gel; conditions: tags: N-terminal His6 (pET28a); chain copies: 2 (inferred, bZIP dimer); label: biotin (SPR); 32P (EMSA)
T5 chain: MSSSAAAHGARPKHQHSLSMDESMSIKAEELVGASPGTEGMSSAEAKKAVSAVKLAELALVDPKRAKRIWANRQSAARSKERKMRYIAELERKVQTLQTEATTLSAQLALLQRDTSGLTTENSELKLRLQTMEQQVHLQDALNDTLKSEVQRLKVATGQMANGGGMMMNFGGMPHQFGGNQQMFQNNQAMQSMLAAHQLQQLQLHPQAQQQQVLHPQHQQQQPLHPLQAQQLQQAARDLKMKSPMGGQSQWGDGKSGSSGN
Procedure: as §3

[7] = molecular target: T6, RF2a-ΔPΔQ (proline- and glutamine-rich domains deleted) (UniProt Q69IL4 SEQ:1-236); test: EMSA; 100 ng protein, 5% acrylamide gel; conditions: tags: N-terminal His6 (pET28a); chain copies: 2 (inferred, bZIP dimer); label: biotin (SPR); 32P (EMSA)
T6 chain: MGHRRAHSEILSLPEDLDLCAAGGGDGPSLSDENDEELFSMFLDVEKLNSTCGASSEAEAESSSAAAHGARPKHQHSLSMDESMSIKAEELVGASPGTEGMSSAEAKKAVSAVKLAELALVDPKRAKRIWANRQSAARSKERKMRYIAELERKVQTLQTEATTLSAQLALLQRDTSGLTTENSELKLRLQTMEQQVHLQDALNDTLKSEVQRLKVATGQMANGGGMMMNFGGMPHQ
Procedure: as §3

Q: “ACGAATCAATAAAGAAGGACCAGAAGATATAAAGCTGGAACATCTTCACATGCTACCACATGGCTAGCATCTTTACTTTAGCATCTCTATTATTGTAAGAGTGTATAATGACCAGTGTGGCGCTGGACTCCAGTATATAAGGAGCACCAGAGTAGTGTAATAGATCATCGATCAAGCAAGCGAGAGCTCAAACTTCTAAGAGAGCAAGA (double strand) [E fragment with Box IIm1]” was tested. Which activity (fold activation) [1] did it give?
A: 7

Q: Which activity (fold activation) [1] does the source give for “ACGAATCAATAAAGAAGGACCAGAAGATATAAAGCTGGAACATCTTCACATGCTACCACATGGCTAGCATCTTTACTTTAGCATCTCTATTATTGTAAGAGTGTATAATGAGGAGTGTGCCCCTTCACTCCAGTATATAAGGAGCACCAGAGTAGTGTAATAGATCATCGATCAAGCAAGCGAGAGCTCAAACTTCTAAGAGAGCAAGA (double strand) [E fragment with Box IIm2]” here?
A: 5.8

B1: Box IIm2 (dsDNA)
DNA 1: GGAGTGTGCCCCTTC
DNA 2: GAAGGGGCACACTCC
Q: Does B1 bind (RF2b [2])?
A: binds

B2: Box II (dsDNA)
DNA 1: CCAGTGTGCCCCTGG
DNA 2: CCAGGGGCACACTGG
Q: Does B2 bind (RF2b [3])?
A: binds

B3: Box IIm1 (dsDNA)
DNA 1: CCAGTGTGGCGCTGG
DNA 2: CCAGCGCCACACTGG
Q: What does the source list for B3?
A: binding result [4]: binds; binding result [5]: binds; binding result [6]: binds; binding result [7]: binds; binding result (RF2b [2]; 32P (EMSA)): binds
